Values of other authors as cited in article PMC11036797.

Columns and labels:
FZD2 (Homo sapiens) = FZD2 (Homo sapiens) (UniProt Q14332)
FZD7 (Homo sapiens) = FZD7 (Homo sapiens) (UniProt O75084)
nectin-3 (Homo sapiens) = nectin-3 (Homo sapiens) (UniProt Q9NQS3)
FZD1 (Homo sapiens) = FZD1 (Homo sapiens) (UniProt Q9UP38)
CSPG4 (Homo sapiens) = CSPG4 (Homo sapiens) (UniProt Q6UVK1)
Chain of CSPG4 (Homo sapiens) (Q6UVK1 30-2322): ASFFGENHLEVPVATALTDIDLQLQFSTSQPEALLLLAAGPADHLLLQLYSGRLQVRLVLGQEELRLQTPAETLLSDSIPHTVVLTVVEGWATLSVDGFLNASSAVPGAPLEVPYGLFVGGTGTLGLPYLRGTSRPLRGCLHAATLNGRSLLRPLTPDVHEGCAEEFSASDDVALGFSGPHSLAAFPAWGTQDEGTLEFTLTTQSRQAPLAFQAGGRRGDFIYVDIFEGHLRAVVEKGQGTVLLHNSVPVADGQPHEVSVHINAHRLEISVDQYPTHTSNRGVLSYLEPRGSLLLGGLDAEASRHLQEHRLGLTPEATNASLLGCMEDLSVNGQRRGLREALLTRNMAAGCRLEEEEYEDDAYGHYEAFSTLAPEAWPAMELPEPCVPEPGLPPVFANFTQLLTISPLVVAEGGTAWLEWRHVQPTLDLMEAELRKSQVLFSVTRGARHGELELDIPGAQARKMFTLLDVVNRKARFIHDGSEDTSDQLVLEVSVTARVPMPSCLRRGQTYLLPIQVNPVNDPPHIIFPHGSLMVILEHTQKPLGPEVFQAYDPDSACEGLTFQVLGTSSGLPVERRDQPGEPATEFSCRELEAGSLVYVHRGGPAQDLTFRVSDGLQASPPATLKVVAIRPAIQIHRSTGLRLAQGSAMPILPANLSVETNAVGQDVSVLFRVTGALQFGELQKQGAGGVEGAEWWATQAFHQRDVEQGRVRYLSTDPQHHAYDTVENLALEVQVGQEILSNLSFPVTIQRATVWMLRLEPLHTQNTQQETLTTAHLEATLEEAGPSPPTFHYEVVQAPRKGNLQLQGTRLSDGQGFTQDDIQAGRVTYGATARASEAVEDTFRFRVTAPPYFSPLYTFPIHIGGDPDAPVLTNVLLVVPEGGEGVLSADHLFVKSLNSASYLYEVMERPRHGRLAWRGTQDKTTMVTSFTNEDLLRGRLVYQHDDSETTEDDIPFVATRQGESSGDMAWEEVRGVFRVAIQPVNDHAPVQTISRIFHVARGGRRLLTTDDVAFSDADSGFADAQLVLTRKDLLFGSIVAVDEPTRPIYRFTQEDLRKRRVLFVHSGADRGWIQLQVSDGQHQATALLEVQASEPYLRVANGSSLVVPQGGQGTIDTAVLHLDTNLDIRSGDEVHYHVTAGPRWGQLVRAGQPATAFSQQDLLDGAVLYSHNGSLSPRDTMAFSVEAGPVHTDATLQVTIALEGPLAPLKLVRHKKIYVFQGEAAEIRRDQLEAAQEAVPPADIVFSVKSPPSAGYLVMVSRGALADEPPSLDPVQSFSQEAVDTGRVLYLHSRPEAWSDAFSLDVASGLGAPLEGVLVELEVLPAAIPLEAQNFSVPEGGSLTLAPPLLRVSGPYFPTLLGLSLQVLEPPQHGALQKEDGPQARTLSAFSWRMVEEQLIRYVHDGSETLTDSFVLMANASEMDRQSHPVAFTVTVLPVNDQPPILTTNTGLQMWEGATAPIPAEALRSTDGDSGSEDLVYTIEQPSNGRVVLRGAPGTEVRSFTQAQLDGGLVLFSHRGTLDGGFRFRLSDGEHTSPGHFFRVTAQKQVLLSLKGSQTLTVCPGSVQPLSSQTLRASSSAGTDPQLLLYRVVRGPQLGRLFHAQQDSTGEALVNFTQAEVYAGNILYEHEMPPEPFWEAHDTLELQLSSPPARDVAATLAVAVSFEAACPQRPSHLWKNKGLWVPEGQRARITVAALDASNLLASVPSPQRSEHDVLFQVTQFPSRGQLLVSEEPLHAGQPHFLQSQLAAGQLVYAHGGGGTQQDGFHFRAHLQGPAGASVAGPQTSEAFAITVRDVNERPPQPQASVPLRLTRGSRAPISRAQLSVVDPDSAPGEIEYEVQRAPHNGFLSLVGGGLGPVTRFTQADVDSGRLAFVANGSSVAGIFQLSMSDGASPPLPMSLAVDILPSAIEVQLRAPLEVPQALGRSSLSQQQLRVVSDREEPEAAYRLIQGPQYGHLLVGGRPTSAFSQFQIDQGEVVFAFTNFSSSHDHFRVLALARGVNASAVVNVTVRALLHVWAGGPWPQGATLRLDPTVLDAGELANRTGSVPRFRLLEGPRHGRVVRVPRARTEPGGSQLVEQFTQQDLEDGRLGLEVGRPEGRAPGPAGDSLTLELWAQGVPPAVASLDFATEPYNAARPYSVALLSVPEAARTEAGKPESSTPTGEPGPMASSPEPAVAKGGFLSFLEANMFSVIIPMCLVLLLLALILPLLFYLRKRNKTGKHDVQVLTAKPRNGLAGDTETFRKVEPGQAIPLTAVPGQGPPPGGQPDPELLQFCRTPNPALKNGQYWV

Chain of FZD2 (Homo sapiens) (Q14332 24-565): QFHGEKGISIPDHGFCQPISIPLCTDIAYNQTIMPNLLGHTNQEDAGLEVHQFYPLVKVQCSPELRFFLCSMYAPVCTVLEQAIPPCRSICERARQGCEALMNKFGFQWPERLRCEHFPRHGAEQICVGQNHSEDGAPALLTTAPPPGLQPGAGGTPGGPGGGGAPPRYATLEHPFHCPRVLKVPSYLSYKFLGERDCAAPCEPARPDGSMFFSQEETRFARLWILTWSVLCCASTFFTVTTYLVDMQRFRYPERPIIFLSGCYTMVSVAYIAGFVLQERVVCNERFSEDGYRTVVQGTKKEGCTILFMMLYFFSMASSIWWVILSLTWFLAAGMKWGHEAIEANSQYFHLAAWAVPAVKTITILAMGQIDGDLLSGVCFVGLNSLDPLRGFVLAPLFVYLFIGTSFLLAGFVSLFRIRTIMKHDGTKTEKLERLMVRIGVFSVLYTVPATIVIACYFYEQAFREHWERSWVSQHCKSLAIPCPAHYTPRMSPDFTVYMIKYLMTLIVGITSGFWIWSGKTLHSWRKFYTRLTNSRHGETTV
Chain of FZD1 (Homo sapiens) (Q9UP38 70-647): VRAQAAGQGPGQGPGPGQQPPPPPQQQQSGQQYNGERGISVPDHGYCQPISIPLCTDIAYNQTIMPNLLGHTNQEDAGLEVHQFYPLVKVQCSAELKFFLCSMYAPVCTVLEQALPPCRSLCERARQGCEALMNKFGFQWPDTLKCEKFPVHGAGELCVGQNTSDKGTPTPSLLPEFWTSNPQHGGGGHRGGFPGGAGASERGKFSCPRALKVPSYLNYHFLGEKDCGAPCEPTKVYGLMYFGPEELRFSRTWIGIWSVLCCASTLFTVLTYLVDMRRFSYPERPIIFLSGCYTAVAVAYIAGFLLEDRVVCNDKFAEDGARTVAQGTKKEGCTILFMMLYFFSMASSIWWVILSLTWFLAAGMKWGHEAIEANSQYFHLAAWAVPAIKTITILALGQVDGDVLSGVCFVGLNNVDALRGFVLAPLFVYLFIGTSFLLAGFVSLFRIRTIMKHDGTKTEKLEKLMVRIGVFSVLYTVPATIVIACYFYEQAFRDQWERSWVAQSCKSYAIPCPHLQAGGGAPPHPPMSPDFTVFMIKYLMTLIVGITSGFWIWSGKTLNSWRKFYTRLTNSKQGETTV
Chain of nectin-3 (Homo sapiens) (Q9NQS3 58-549): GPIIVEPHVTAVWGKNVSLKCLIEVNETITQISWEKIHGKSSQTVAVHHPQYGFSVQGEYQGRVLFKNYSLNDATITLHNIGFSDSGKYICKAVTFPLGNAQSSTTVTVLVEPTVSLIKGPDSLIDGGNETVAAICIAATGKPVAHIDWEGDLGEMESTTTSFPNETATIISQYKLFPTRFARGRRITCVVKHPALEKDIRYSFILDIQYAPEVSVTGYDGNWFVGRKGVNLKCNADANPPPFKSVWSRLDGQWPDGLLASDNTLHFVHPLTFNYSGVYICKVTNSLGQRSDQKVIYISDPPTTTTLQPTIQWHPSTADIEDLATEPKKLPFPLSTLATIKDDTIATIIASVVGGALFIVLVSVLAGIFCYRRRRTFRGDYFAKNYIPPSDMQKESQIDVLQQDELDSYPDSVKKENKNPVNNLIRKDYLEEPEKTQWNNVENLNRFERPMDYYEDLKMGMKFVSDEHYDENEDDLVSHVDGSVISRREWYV

TcdB1 (from UniProt P18177)
Kd (FZD2 (Homo sapiens)): 0.019 µM | Kd (FZD7 (Homo sapiens)): 0.027 µM | Kd (nectin-3 (Homo sapiens)): 0.053 µM | Kd (FZD1 (Homo sapiens)): 0.032 µM | Kd (CSPG4 (Homo sapiens)): 0.0152 µM
